Biological target: Filamentous actin (F-actin) (rabbit) (UniProt P68135)
Assay: co-sedimentation; high speed actin binding co-sedimentation: 10 uM Vt variant and 20 uM F-actin in actin polymerization buffer (10 mM Tris, 200 mM KCl, 10 mM imidazole, 2.5 mM MgCl2, 1 mM EGTA, 2 mM DTT, pH 7.5), room temperature 1 hr, 185,000 RCF for 60 min; fraction of Vt in the pellet by SDS-PAGE densitometry

Vt E1015A (domain or fragment)
reduction of F-actin binding relative to WT Vt: 2%

Vt E1021A (domain or fragment)
reduction of F-actin binding relative to WT Vt: 2%
